Legend:
CYLD = CYLD expression up-regulation by bacterial agonists for TLR2
Cyld−/− mice = experiment: Survival of Cyld−/− mice inoculated with S. pneumoniae after pretreatment; format: in vivo, mouse; conditions: wedelolactone 10 mg/kg intraperitoneally 2 hours before S.p. inoculation
Description: (§1) For S. pneumoniae-induced lethal infections in wild type, Cyld^−/−, Mkk3^−/−, and PAI-1^−/− mice, anaesthetized mice were intratracheally inoculated with live S. pneumoniae, S. pneumoniae wild type or pneumolysin mutant lysate, or pneumolysin (“PLY”), at a concentration of 5×10^7CFU per mouse for live bacteria and bacterial lysate and 200 ng/mouse for PLY in all experiments unless otherwise indicated, and saline was inoculated as control. The mice were monitored for lethality every 2 hours for the first 12 hours and every 12 hours for 5 days thereafter. To assess the effect of perturbing p38 MAPK signaling on S. pneumoniae-induced lethality in Cyld^−/− mice, Cyld^−/− mice were pretreated with the p38 inhibitor SB203580 (10 mg/kg, intraperitoneally in Cyld^−/− mice) 2 hours before S. pneumoniae inoculation, and mice were then intratracheally inoculated with S. pneumoniae. To determine the effect of administration of exogenous PAI-1 on S. pneumoniae-induced lethality, mice were intratracheally administered with mouse rPAI-1 (12.5 μg/mouse) or saline as control, followed by S. pneumoniae and PLY inoculation 1 day after PAI-1 administration. For PAI-1 neutralization in Cyld^−/− mice, Cyld^−/− mice were intraperitoneally injected with α-PAI-1 mAb (25 μg/mouse for histological analysis and 50 μg/mouse for lethality) 2 hours before S. pneumoniae inoculation. Mouse IgG was used as control. […] Lung tissues were then subjected to histological analysis and total mRNA and protein extraction. In all Examples, saline was used as a control unless otherwise specified.
To assess the effect of perturbing NF-κB signaling on S.p.-induced lethality in Cyld^−/− mice, Cyld^−/− mice were pretreated with the IKK inhibitor Wedelolactone (10 mg/kg, intraperitoneally) 2 hours before S.p. inoculation, and mice were then intratracheally inoculated with S.p.
(§2) Differences in survival between wild-type, Cyld-deficient (“Cyld^−/−”), Mkk3-deficient (“Mkk3^−/−”), and PAI/−/−deficient (“PAI-1^−/−”) mice after saline, S. pneumoniae, S. pneumoniae lysate, and/or pneumolysin inoculation with or without SB203580, rPAI-1, or α-PAI-1 mAb were determined by Kaplan-Meier analysis. All tests were performed using SPSS14.0 software (SPSS Inc.). All in vivo survival rate data were evaluated by Log Lank test. All other in vivo and in vitro data were evaluated by Student t-test. Statistical significance was accepted at a value of p<0.05.

TRAF7, Q6Q0C0 = target: T1, TRAF7, Q6Q0C0
T1 chain: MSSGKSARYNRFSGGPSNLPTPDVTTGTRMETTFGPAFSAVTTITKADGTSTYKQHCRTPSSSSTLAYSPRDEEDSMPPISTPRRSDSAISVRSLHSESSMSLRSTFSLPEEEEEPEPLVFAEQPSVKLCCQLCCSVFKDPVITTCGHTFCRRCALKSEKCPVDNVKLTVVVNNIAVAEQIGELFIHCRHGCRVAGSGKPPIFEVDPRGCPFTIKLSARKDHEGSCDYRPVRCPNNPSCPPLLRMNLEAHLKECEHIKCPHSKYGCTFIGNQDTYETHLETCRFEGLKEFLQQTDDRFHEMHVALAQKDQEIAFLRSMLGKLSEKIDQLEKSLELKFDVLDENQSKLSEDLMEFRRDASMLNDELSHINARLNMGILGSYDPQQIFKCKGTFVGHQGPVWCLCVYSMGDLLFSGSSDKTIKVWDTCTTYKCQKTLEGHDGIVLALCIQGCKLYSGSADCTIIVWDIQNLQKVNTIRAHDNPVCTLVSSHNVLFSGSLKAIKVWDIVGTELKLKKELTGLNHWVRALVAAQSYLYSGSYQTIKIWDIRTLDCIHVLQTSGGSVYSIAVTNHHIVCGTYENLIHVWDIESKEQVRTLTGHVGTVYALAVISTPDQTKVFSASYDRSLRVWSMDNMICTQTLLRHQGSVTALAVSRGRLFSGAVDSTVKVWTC

[1] = target: T2, tumor necrosis factor receptor-associated factor 6, Q9Y4K3
T2 chain: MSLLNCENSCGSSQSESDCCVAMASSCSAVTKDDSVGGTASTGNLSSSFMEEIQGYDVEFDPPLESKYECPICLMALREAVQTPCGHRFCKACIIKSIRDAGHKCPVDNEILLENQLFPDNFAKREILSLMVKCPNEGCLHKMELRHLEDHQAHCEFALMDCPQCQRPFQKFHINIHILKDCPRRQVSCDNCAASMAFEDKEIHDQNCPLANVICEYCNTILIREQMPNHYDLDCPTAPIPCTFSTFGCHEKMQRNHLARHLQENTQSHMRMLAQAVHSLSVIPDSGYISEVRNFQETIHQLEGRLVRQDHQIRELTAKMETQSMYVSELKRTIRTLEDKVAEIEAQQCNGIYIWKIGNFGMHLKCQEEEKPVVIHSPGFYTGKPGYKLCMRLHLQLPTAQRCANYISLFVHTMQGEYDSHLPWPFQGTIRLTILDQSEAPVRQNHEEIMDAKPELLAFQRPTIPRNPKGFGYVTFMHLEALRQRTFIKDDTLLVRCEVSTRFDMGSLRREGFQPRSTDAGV

wild type mice [2] = experiment: Pathological and histological analysis of lungs (alveolar hemorrhage) of wild type mice; format: in vivo, mouse; conditions: wild type mice inoculated with rPAI-1
Description: For S. pneumoniae-induced lethal infections in wild type, Cyld^−/−, Mkk3^−/−, and PAI-1^−/− mice, anaesthetized mice were intratracheally inoculated with live S. pneumoniae, S. pneumoniae wild type or pneumolysin mutant lysate, or pneumolysin (“PLY”), at a concentration of 5×10^7CFU per mouse for live bacteria and bacterial lysate and 200 ng/mouse for PLY in all experiments unless otherwise indicated, and saline was inoculated as control. The mice were monitored for lethality every 2 hours for the first 12 hours and every 12 hours for 5 days thereafter. To assess the effect of perturbing p38 MAPK signaling on S. pneumoniae-induced lethality in Cyld^−/− mice, Cyld^−/− mice were pretreated with the p38 inhibitor SB203580 (10 mg/kg, intraperitoneally in Cyld^−/− mice) 2 hours before S. pneumoniae inoculation, and mice were then intratracheally inoculated with S. pneumoniae. […]
For histological analysis, dissected lungs were fixed with 10% buffered neutral formalin overnight with rocking followed by routine processing, embedded in paraffin, and sectioned at about 4 μm thickness. […] H&E-stained lung tissue slides were evaluated by light microscopy using Axiovert 40 CFL (Carl Zeiss), and images were recorded with an AxioCam MRC (Carl Zeiss).

wild type mice [3] = experiment: Survival of wild type mice inoculated with S. pneumoniae D39 lysate or PLY after rPAI-1 pre-administration; format: in vivo, mouse; conditions: for mortality rate / lethality in mice inoculated with S. pneumoniae: rPAI-1 12.5 μg/mouse intratracheally 1 day before S. pneumoniae D39 lysate
Description: as §1
Differences in survival between wild-type, Cyld-deficient (“Cyld^−/−”), Mkk3-deficient (“Mkk3^−/−”), and PAI/−/−deficient (“PAI-1^−/−”) mice after saline, S. pneumoniae, S. pneumoniae lysate, and/or pneumolysin inoculation with or without SB203580, rPAI-1, or α-PAI-1 mAb were determined by Kaplan-Meier analysis. All tests were performed using SPSS14.0 software (SPSS Inc.). All in vivo survival rate data were evaluated by Log Lank test. All other in vivo and in vitro data were evaluated by Student t-test. […]

Tlr4−/− mice = experiment: Survival of Tlr4-deficient mice after pneumolysin inoculation with or without rPAI-1 pre-administration; format: in vivo; conditions: intratracheal PLY with mouse rPAI-1 pre-administration
Description: as §2
To further determine whether exogenous rPAI-1 also reduces mortality rate in Tlr4^−/− mice, Tlr4^−/− mice were intratracheally inoculated with PLY with or without mouse rPAI-1 pre-administration, and viability was assessed.

[4] = mouse, in vivo, 0.6 mg/kg
Description: The efficacy of intratracheal administration of rPAI-1 was evaluated by assessing the presence and function of recombinant PAI-1 in mice. It was first determined whether exogenous PAI-1 is evenly distributed in the lungs of mice after intratracheal inoculation of recombinant stable PAI-1. Recombinant stable wild-type PAI-1 was first labeled with fluorescent dyes using an Alexa Flour 488 protein-labeling kit (Molecular Probes, Eugene, Oreg.) (Herbein & Wright, “Enhanced Clearance of Surfactant Protein D During LPS-induced Acute Inflammation in Rat Lung,” Am. J. Physiol. Lung Cell. Mol. Physiol. 281:L268-L277 (2001), which is hereby incorporated by reference in its entirety). Alexa dyes were selected because their magnitude of fluorescence is constant from pH 4 to 10 and they have a low level of photobleaching compared with similar fluorescent dyes used for protein labeling. […]
To determine whether the exogenously inoculated rPAI-1 is also functional, the in vivo functional activity of intratracheally inoculated rPAI-1 was measured in lungs of mice using ELISA kits from Molecular Innovations. […]

## Pam3CSK4
CYLD
  CYLD expression: up-regulated

## peptidoglycan
CYLD
  CYLD expression: up-regulated

## MALP-2
CYLD
  CYLD expression: up-regulated

## COc1cc(O)c2c(c1)oc(=O)c1c3cc(O)c(O)cc3oc21 [Wedelolactone]
Cyld−/− mice
  survival rate: did not greatly alter the survival rate

B1: deubiquitinating enzyme CYLD (protein)
chain: MSSGLWSQEKVTSPYWEERIFYLLLQECSVTDKQTQKLLKVPKGSIGQYIQDRSVGHSRIPSAKGKKNQIGLKILEQPHAVLFVDEKDVVEINEKFTELLLAITNCEERFSLFKNRNRLSKGLQIDVGCPVKVQLRSGEEKFPGVVRFRGPLLAERTVSGIFFGVELLEEGRGQGFTDGVYQGKQLFQCDEDCGVFVALDKLELIEDDDTALESDYAGPGDTMQVELPPLEINSRVSLKVGETIESGTVIFCDVLPGKESLGYFVGVDMDNPIGNWDGRFDGVQLCSFACVESTILLHINDIIPALSESVTQERRPPKLAFMSRGVGDKGSSSHNKPKATGSTSDPGNRNRSELFYTLNGSSVDSQPQSKSKNTWYIDEVAEDPAKSLTEISTDFDRSSPPLQPPPVNSLTTENRFHSLPFSLTKMPNTNGSIGHSPLSLSAQSVMEELNTAPVQESPPLAMPPGNSHGLEVGSLAEVKENPPFYGVIRWIGQPPGLNEVLAGLELEDECAGCTDGTFRGTRYFTCALKKALFVKLKSCRPDSRFASLQPVSNQIERCNSLAFGGYLSEVVEENTPPKMEKEGLEIMIGKKKGIQGHYNSCYLDSTLFCLFAFSSVLDTVLLRPKEKNDVEYYSETQELLRTEIVNPLRIYGYVCATKIMKLRKILEKVEAASGFTSEEKDPEEFLNILFHHILRVEPLLKIRSAGQKVQDCYFYQIFMEKNEKVGVPTIQQLLEWSFINSNLKFAEAPSCLIIQMPRFGKDFKLFKKIFPSLELNITDLLEDTPRQCRICGGLAMYECRECYDDPDISAGKIKQFCKTCNTQVHLHPKRLNHKYNPVSLPKDLPDWDWRHGCIPCQNMELFAVLCIETSHYVAFVKYGKDDSAWLFFDSMADRDGGQNGFNIPQVTPCPEVGEYLKMSLEDLHSLDSRRIQGCARRLLCDAYMCMYQSPTMSLYK
TRAF7, Q6Q0C0
  NTHi-induced inflammatory response: CYLD inhibition of this inflammatory response was achieved via deubiquitinating TRAF6 and TRAF7
  ubiquitination of TRAF7: Overexpression of WT CYLD reduced, whereas siRNA knock-down of CYLD enhanced, the ubiquitination of TRAF6 and TRAF7
[1]
  NTHi-induced inflammatory response: CYLD inhibition of this inflammatory response was achieved via deubiquitinating TRAF6 and TRAF7
  ubiquitination of TRAF6: Overexpression of WT CYLD reduced, whereas siRNA knock-down of CYLD enhanced, the ubiquitination of TRAF6 and TRAF7

B2: rPAI-1: mouse recombinant plasminogen activator inhibitor-1, purchased from Calbiochem; Example 20 uses recombinant stable wild-type PAI-1 (protein, UniProt P22777 23-402, looked up)
Plasminogen activator …: TLPLRESHTAHQATDFGVKVFQQVVQASKDRNVVFSPYGVSSVLAMLQMTTAGKTRRQIQDAMGFKVNEKGTAHALRQLSKELMGPWNKNEISTADAIFVQRDLELVQGFMPHFFKLFQTMVKQVDFSEVERARFIINDWVERHTKGMINDLLAKGAVDELTRLVLVNALYFSGQWKTPFLEASTHQRLFHKSDGSTVSVPMMAQSNKFNYTEFTTPDGLEYDVVELPYQRDTLSMFIAAPFEKDVHLSALTNILDAELIRQWKGNMTRLPRLLILPKFSLETEVDLRGPLEKLGMPDMFSATLADFTSLSDQEQLSVAQALQKVRIEVNESGTVASSSTAFVISARMAPTEMVIDRSFLFVVRHNPTETILFMGQVMEP
Wild type mice [2]
  PLY-induced alveolar hemorrhage: prevented
  S. pneumoniae-induced alveolar (lung) hemorrhage: prevented
Wild type mice [3]
  mortality rate / lethality in mice inoculated with S. pneumoniae: greatly reduced the mortality rate
Wild type mice [3]; listed as recombinant PAI-1
  mortality rate / lethality in mice inoculated with S. pneumoniae: protected mice from S.p.-induced lethality
Wild type mice [3]; rPAI-1 12.5 μg/mouse intratracheally 1 day before pneumolysin
  mortality rate in mice inoculated with PLY: greatly reduced the mortality rate
Tlr4−/− mice
  protection from lethal PLY challenge (viability): fully protected mice from lethal challenge
[4]
  distribution of intratracheally inoculated rPAI-1 in the lungs: widely distributed in the lungs

Reference: patent US8716237B2, “Methods for the treatment or prevention of hemorrhagic conditions” (University of Rochester, priority 2007, dated 2014)
